Measured values as given in patent US20230234997A1, “Compositions and Methods for the Treatment of Synucleinopathies” (SOLA BIOSCIENCES LLC, priority 2020, published 2023).
One block for each compound: values may come before it. Residues, ends and D or L forms follow the SMILES beside them. *: point of attachment. Cbz = O=C(OCc1ccccc1)*

Legend:
Type in all cases: cell-based
[1] = target: T1, mutant (A53T) α-synuclein (Homo sapiens, UniProt P37840, A53T); assay: ELISA of aggregated α-synuclein (Syn-O4 capture) in lysates of transfected HEK293 cells
T1 construct: expressed in transfected cells; host or cells: HEK293
Procedure: Cells were also treated with either Bafilomycin A1, an inhibitor of late phase autophagy (10 nM and 100 nM), or MG132, a proteasome inhibitor (0.1 μM and 1 μM). Aggregated synuclein in cell lysates were determined by ELISA using an anti-aggregated synuclein antibody.
Expression vector plasmids encoding various protein constructs were transfected into HEK293 cells with Lipofectamine 3000 transfection reagent (Thermo Fisher Scientific). One day after transfection, culture medium was replaced with fresh medium containing bafilomycin al (BFA) or MG132, and cells were incubated for additional 48 hours. Cells were lysed in lysis buffer (20 mM Tris, pH 7.4, 150 mM NaCl, 1 mM EDTA, 0.1% NP-40) supplemented with protease inhibitor cocktail (Complete Protease Inhibitor Cocktail; Sigma) and 2 mM PMSF. After brief sonication, cell lysates were analyzed in ELISA or immunoblotting assay.
The aggregation status of expressed α-synuclein was monitored with α-synuclein aggregate-specific antibody Syn-O4 (BioLegend). Syn-O4 is a conformation-specific monoclonal antibody that recognizes specifically α-synuclein aggregates but not the soluble, monomeric form of the protein^58. Microtiter plate wells were coated with Syn-O4 overnight at 4° C., and after coating, the wells were washed three times with PBS, blocked for one hour with PBS containing 1% BSA, and washed again with PBS. […]

[2] = target: T1, mutant (A53T) α-synuclein; assay: Immunoblot of total α-synuclein in lysates of transfected HEK293 cells
Procedure: (§1) FIG. 3A: Wild type (WT) α-synuclein (Syn(WT): bars 1-3) or mutant α-synuclein (Syn(A53T): bars 4-6) was expressed alone or with a Flag epitope-tagged fusion protein comprising the J-domain DnaJB1 and a α-synuclein-binding domain (J-SynBP1: bars 2 and 5) or a control fusion protein construct comprising a mutated J-domain (containing a P33Q substitution) and a α-synuclein-binding peptide (J(MT)-SynBP1: bars 3 and 6) in HEK293 cells. Two days later, cells were homogenized in Tris buffer (10 mM Tris, pH7.4, 140 mM NaCl, 1 mM EDTA supplemented with protease inhibitor cocktail). Aggregation of mutant α-synuclein levels were quantified with sandwich ELISA, in which aggregated α-synuclein proteins were captured by coated-Syn-O4 antibody, followed by detection with HRP-conjugated anti-α-synuclein antibody (BioLegend: A15115A). FIG. 3B Lysates were prepared from HEK293 cells transiently transfected with wildtype Syn(WT) (lanes 1-3) or mutant Syn(A53T) (lane 4-6) alone or co-expressed with the fusion protein constructs. After brief sonication, the cell lysate was subjected to SDS-PAGE/immuno blotting with anti-α-synuclein antibody (Ab-2: top panel), Flag antibody (middle panel) or anti-Tubulin antibody (bottom panel).
Cells were transfected with either wildtype (lane 2) or mutant (lanes 3-8) α-synuclein, and also transfected with the JB1-SynBP1 fusion protein (lanes 4-8). […]
(§2) Expression vector plasmids encoding various protein constructs were transfected into HEK293 cells with Lipofectamine 3000 transfection reagent (Thermo Fisher Scientific). Cell lysates were analyzed for expressed proteins using immunoblot assays. […] After brief sonication, the samples were analyzed for expressed proteins using immunoblot assays. […]
(§3) Expressed proteins were detected using a chemiluminescent signal. […]
Expression vector plasmids encoding various protein constructs were transfected into HEK293 cells with Lipofectamine 3000 transfection reagent (Thermo Fisher Scientific). […] After brief sonication, cell lysates were analyzed in ELISA or immunoblotting assay.

wildtype α-synuclein [3] = target: T2, wildtype α-synuclein (Homo sapiens, UniProt P37840); assay: ELISA of aggregated α-synuclein (Syn-O4 capture) in lysates of transfected HEK293 cells; conditions: co-expression with wildtype α-synuclein, ELISA on cell lysates, bars 1-3
T2 construct: expressed in transfected cells; host or cells: HEK293
Procedure: as §1, with “FIG. 3B Lysates were prepared from HEK293 cells transiently transfected with wildtype Syn(WT) (lanes 1-3) or mutant Syn(A53T) (lane 4-6) alone or co-expressed with the fusion protein constructs. After brief sonication, the cell lysate was subjected to SDS-PAGE/immuno blotting with anti-α-synuclein antibody (Ab-2: top panel), Flag antibody (middle panel) or anti-Tubulin antibody (bottom panel).” left out
as §2
The aggregation status of expressed α-synuclein was monitored with α-synuclein aggregate-specific antibody Syn-O4 (BioLegend). […]

wildtype α-synuclein [4] = target: T2, wildtype α-synuclein; assay: Immunoblot of total α-synuclein in lysates of transfected HEK293 cells; conditions: wildtype Syn(WT), lanes 1-3
Procedure: as §1, with “FIG. 3B Lysates were prepared from HEK293 cells transiently transfected with wildtype Syn(WT) (lanes 1-3) or mutant Syn(A53T) (lane 4-6) alone or co-expressed with the fusion protein constructs. After brief sonication, the cell lysate was subjected to SDS-PAGE/immuno blotting with anti-α-synuclein antibody (Ab-2: top panel), Flag antibody (middle panel) or anti-Tubulin antibody (bottom panel).” left out
as §2, §3

[5] = target: T3, mutant (A53T) α-synuclein phosphorylated at Ser129 (Homo sapiens, UniProt P37840, A53T); assay: Level of phosphorylated α-synuclein (Ser129) on co-expression of fusion protein constructs; conditions: Table 13, wildtype alone = 100%, mutant alone = 92.1%
T3 construct: expressed in transfected cells

[6] = HEK293, BFA at either 10 nM or 100 nM
[7] = HEK293, MG132 (0.1 μM and 1 μM)

Compound: CO/C1=C\C(C)=C\[C@@H](C)[C@@H](O)[C@@H](C)C/C(C)=C/C=C/[C@H](OC)[C@@H]([C@@H](C)[C@@H](O)[C@H](C)[C@@]2(O)C[C@@H](O)[C@H](C)[C@@H](C(C)C)O2)OC1=O [BFA, Bafilomycin A1, reference compound]
effect of inhibitor on aggregated α-synuclein in cells expressing mutant α-synuclein and construct 1 [1, 6]: restoration of total and aggregated α-synuclein to levels matching cells expressing mutant α-synuclein alone | effect of inhibitor on total α-synuclein in cells expressing mutant α-synuclein and construct 1 [2, 6]: restoration of total and aggregated α-synuclein to levels matching cells expressing mutant α-synuclein alone

Compound: CC(C)C[C@@H](C=O)NC(=O)[C@H](CC(C)C)NC(=O)[C@H](CC(C)C)NC(=O)OCc1ccccc1 [MG132, reference compound] (Cbz-Leu-Leu-Leu-aldehyde)
effect of inhibitor on aggregated level of α-synuclein in cells expressing mutant α-synuclein and construct 1 [1, 7]: little effect | effect of inhibitor on total level of α-synuclein in cells expressing mutant α-synuclein and construct 1 [2, 7]: little effect

overall level of α-synuclein (FIG. 3B, Western blot) ([2]; HEK293 cells, mutant Syn(A53T), lanes 4-6): relatively similar levels | overall level of α-synuclein (FIG. 3B, Western blot) (wildtype α-synuclein [4]): relatively similar levels
Compound: Construct 2: Same as construct 1, but containing a P33Q mutation within the J domain (control)
amount of detectable aggregated α-synuclein (FIG. 3A) (wildtype α-synuclein [3]): higher overall aggregation

Compound: Construct 10: J domain from human DnaJB1 fused to 4XGGGGS linker, in turn, fused on its C-terminus to QBP1
ability to reduce mutant (A53T) synuclein aggregation (Table 11) ([1]; Mutant (A53T)): potently reduce α-synuclein aggregation

Compound: Construct 11: J domain from human DnaJB1 fused on its C-terminus to SynBP1 (with flexible GGGGS linker)
Phosphorylated α-synuclein [5]: 19.1%

Compound: Construct 12: J domain from human DnaJB1 fused on its C-terminus to SynBP1 (with rigid EAAAK linker)
Phosphorylated α-synuclein [5]: 23.1%

Compound: Construct 13: J domain from human DnaJB1 fused on its C-terminus to SynBP1 (no linker)
Phosphorylated α-synuclein [5]: 4.5%
